Results from patent US20150344570A1 (published 2015).

T1: FcγRIIa R (human, UniProt P12318 34-217)
T1 construct: extracellular domain; also called FcgRIIa R type; 2aR
T1 sequence (looked up): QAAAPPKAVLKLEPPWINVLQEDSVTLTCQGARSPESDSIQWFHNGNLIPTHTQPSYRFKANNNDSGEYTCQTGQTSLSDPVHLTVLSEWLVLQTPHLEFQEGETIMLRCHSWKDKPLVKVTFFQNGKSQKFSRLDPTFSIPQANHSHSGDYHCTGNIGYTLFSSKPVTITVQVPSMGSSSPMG

T2: FcγRIIb (human, UniProt P31994 43-217)
T2 construct: extracellular domain; also called FcgRIIb; 2b
T2 sequence (looked up): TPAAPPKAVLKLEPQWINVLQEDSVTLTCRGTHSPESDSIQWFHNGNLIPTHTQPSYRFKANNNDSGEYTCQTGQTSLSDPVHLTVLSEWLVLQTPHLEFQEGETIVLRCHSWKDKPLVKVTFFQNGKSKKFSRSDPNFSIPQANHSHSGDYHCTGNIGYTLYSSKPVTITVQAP


Experiments:
[1] = biological target: T1, FcγRIIa R; assay: SPR (Biacore); He/Con_2aR divided by He/Con_2b (FcγRIIa R over FcγRIIb)
[2] = biological target: T2, FcγRIIb; assay: SPR (Biacore), captured antibody, FcγR as analyte; relative binding, control GpH7-A5/GpH7-B3/GpL16-k0 = 100
[3] = biological target: T1, FcγRIIa R; assay: as above

| Binder | He_2aR/2b (IIaR/IIb) [1] | He/Con_2b [2] | He/Con_2aR [3] |
| --- | --- | --- | --- |
| GpH7-A5/GpH7-B3 variant P271_04F/GpL16-k0 (antibody, human IgG1, kappa, heterodimerized anti-glypican-3 IgG1; alteration in one H chain only; also called He Ab) heavy 1: not shown heavy 2: not shown light: DIVMTQSPLSLPVTPGEPASISCQASESLVHSNRNTYLHWYLQKPGQSPQLLIYKVSNRFSGVPDRFSGSGSGTDFTLKISRVEAEDVGVYYCSQNTHVPPTFGQGTKVEIERTVAAPSVFIFPPSDEQLKSGTASVVCLLNNFYPREAKVQWKVDNALQSGNSQESVTEQDSKDSTYSLSSTLTLSKADYEKHKVYACEVTHQGLSSPVTKSFNRGEC | 1.28 ratio | 59.5 control = 100 | 75.9 control = 100 |
| GpH7-A5/GpH7-B3 variant Q295_12R/GpL16-k0 (antibody, human IgG1, kappa, heterodimerized anti-glypican-3 IgG1; alteration in one H chain only; also called He Ab) heavy 1: not shown heavy 2: not shown light: DIVMTQSPLSLPVTPGEPASISCQASESLVHSNRNTYLHWYLQKPGQSPQLLIYKVSNRFSGVPDRFSGSGSGTDFTLKISRVEAEDVGVYYCSQNTHVPPTFGQGTKVEIERTVAAPSVFIFPPSDEQLKSGTASVVCLLNNFYPREAKVQWKVDNALQSGNSQESVTEQDSKDSTYSLSSTLTLSKADYEKHKVYACEVTHQGLSSPVTKSFNRGEC | 1.27 ratio | 65.2 control = 100 | 83 control = 100 |
| GpH7-A5/GpH7-B3 variant Q295_04F/GpL16-k0 (antibody, human IgG1, kappa, heterodimerized anti-glypican-3 IgG1; alteration in one H chain only; also called He Ab) heavy 1: not shown heavy 2: not shown light: DIVMTQSPLSLPVTPGEPASISCQASESLVHSNRNTYLHWYLQKPGQSPQLLIYKVSNRFSGVPDRFSGSGSGTDFTLKISRVEAEDVGVYYCSQNTHVPPTFGQGTKVEIERTVAAPSVFIFPPSDEQLKSGTASVVCLLNNFYPREAKVQWKVDNALQSGNSQESVTEQDSKDSTYSLSSTLTLSKADYEKHKVYACEVTHQGLSSPVTKSFNRGEC | 1.29 ratio | 64.7 control = 100 | 83.6 control = 100 |
| GpH7-A5/GpH7-B3 variant Q295_18N/GpL16-k0 (antibody, human IgG1, kappa, heterodimerized anti-glypican-3 IgG1; alteration in one H chain only; also called He Ab) heavy 1: not shown heavy 2: not shown light: DIVMTQSPLSLPVTPGEPASISCQASESLVHSNRNTYLHWYLQKPGQSPQLLIYKVSNRFSGVPDRFSGSGSGTDFTLKISRVEAEDVGVYYCSQNTHVPPTFGQGTKVEIERTVAAPSVFIFPPSDEQLKSGTASVVCLLNNFYPREAKVQWKVDNALQSGNSQESVTEQDSKDSTYSLSSTLTLSKADYEKHKVYACEVTHQGLSSPVTKSFNRGEC | 1.27 ratio | 64.9 control = 100 | 82.4 control = 100 |
| GpH7-A5/GpH7-B3 variant Q295_20W/GpL16-k0 (antibody, human IgG1, kappa, heterodimerized anti-glypican-3 IgG1; alteration in one H chain only; also called He Ab) heavy 1: not shown heavy 2: not shown light: DIVMTQSPLSLPVTPGEPASISCQASESLVHSNRNTYLHWYLQKPGQSPQLLIYKVSNRFSGVPDRFSGSGSGTDFTLKISRVEAEDVGVYYCSQNTHVPPTFGQGTKVEIERTVAAPSVFIFPPSDEQLKSGTASVVCLLNNFYPREAKVQWKVDNALQSGNSQESVTEQDSKDSTYSLSSTLTLSKADYEKHKVYACEVTHQGLSSPVTKSFNRGEC | 1.35 ratio | 44.4 control = 100 | 60 control = 100 |
| GpH7-A5/GpH7-B3 variant Q295_13S/GpL16-k0 (antibody, human IgG1, kappa, heterodimerized anti-glypican-3 IgG1; alteration in one H chain only; also called He Ab) heavy 1: not shown heavy 2: not shown light: DIVMTQSPLSLPVTPGEPASISCQASESLVHSNRNTYLHWYLQKPGQSPQLLIYKVSNRFSGVPDRFSGSGSGTDFTLKISRVEAEDVGVYYCSQNTHVPPTFGQGTKVEIERTVAAPSVFIFPPSDEQLKSGTASVVCLLNNFYPREAKVQWKVDNALQSGNSQESVTEQDSKDSTYSLSSTLTLSKADYEKHKVYACEVTHQGLSSPVTKSFNRGEC | 1.3 ratio | 56.9 control = 100 | 73.7 control = 100 |
| GpH7-A5/GpH7-B3 variant S298_02A/GpL16-k0 (antibody, human IgG1, kappa, heterodimerized anti-glypican-3 IgG1; alteration in one H chain only; also called He Ab; GpH7-A5/GpH7-B3-15-02A/GpL16-k0) heavy 1: not shown heavy 2: not shown light: DIVMTQSPLSLPVTPGEPASISCQASESLVHSNRNTYLHWYLQKPGQSPQLLIYKVSNRFSGVPDRFSGSGSGTDFTLKISRVEAEDVGVYYCSQNTHVPPTFGQGTKVEIERTVAAPSVFIFPPSDEQLKSGTASVVCLLNNFYPREAKVQWKVDNALQSGNSQESVTEQDSKDSTYSLSSTLTLSKADYEKHKVYACEVTHQGLSSPVTKSFNRGEC | 1.24 ratio | 73.4 control = 100 | 91.2 control = 100 |
| GpH7-A5/GpH7-B3 variant Q295_15Y/GpL16-k0 (antibody, human IgG1, kappa, heterodimerized anti-glypican-3 IgG1; alteration in one H chain only; also called He Ab) heavy 1: not shown heavy 2: not shown light: DIVMTQSPLSLPVTPGEPASISCQASESLVHSNRNTYLHWYLQKPGQSPQLLIYKVSNRFSGVPDRFSGSGSGTDFTLKISRVEAEDVGVYYCSQNTHVPPTFGQGTKVEIERTVAAPSVFIFPPSDEQLKSGTASVVCLLNNFYPREAKVQWKVDNALQSGNSQESVTEQDSKDSTYSLSSTLTLSKADYEKHKVYACEVTHQGLSSPVTKSFNRGEC | 1.27 ratio | 65.4 control = 100 | 82.8 control = 100 |
| GpH7-A5/GpH7-B3 variant P271_20W/GpL16-k0 (antibody, human IgG1, kappa, heterodimerized anti-glypican-3 IgG1; alteration in one H chain only; also called He Ab) heavy 1: not shown heavy 2: not shown light: DIVMTQSPLSLPVTPGEPASISCQASESLVHSNRNTYLHWYLQKPGQSPQLLIYKVSNRFSGVPDRFSGSGSGTDFTLKISRVEAEDVGVYYCSQNTHVPPTFGQGTKVEIERTVAAPSVFIFPPSDEQLKSGTASVVCLLNNFYPREAKVQWKVDNALQSGNSQESVTEQDSKDSTYSLSSTLTLSKADYEKHKVYACEVTHQGLSSPVTKSFNRGEC | 1.33 ratio | 58.1 control = 100 | 77.3 control = 100 |
| GpH7-A5/GpH7-B3 variant Q295_05P/GpL16-k0 (antibody, human IgG1, kappa, heterodimerized anti-glypican-3 IgG1; alteration in one H chain only; also called He Ab) heavy 1: not shown heavy 2: not shown light: DIVMTQSPLSLPVTPGEPASISCQASESLVHSNRNTYLHWYLQKPGQSPQLLIYKVSNRFSGVPDRFSGSGSGTDFTLKISRVEAEDVGVYYCSQNTHVPPTFGQGTKVEIERTVAAPSVFIFPPSDEQLKSGTASVVCLLNNFYPREAKVQWKVDNALQSGNSQESVTEQDSKDSTYSLSSTLTLSKADYEKHKVYACEVTHQGLSSPVTKSFNRGEC | 1.3 ratio | 67.5 control = 100 | 87.4 control = 100 |
| GpH7-A5/GpH7-B3 variant Q295_16H/GpL16-k0 (antibody, human IgG1, kappa, heterodimerized anti-glypican-3 IgG1; alteration in one H chain only; also called He Ab) heavy 1: not shown heavy 2: not shown light: DIVMTQSPLSLPVTPGEPASISCQASESLVHSNRNTYLHWYLQKPGQSPQLLIYKVSNRFSGVPDRFSGSGSGTDFTLKISRVEAEDVGVYYCSQNTHVPPTFGQGTKVEIERTVAAPSVFIFPPSDEQLKSGTASVVCLLNNFYPREAKVQWKVDNALQSGNSQESVTEQDSKDSTYSLSSTLTLSKADYEKHKVYACEVTHQGLSSPVTKSFNRGEC | 1.3 ratio | 62.7 control = 100 | 81.3 control = 100 |
| GpH7-A5/GpH7-B3 variant S298_03V/GpL16-k0 (antibody, human IgG1, kappa, heterodimerized anti-glypican-3 IgG1; alteration in one H chain only; also called He Ab) heavy 1: not shown heavy 2: not shown light: DIVMTQSPLSLPVTPGEPASISCQASESLVHSNRNTYLHWYLQKPGQSPQLLIYKVSNRFSGVPDRFSGSGSGTDFTLKISRVEAEDVGVYYCSQNTHVPPTFGQGTKVEIERTVAAPSVFIFPPSDEQLKSGTASVVCLLNNFYPREAKVQWKVDNALQSGNSQESVTEQDSKDSTYSLSSTLTLSKADYEKHKVYACEVTHQGLSSPVTKSFNRGEC | 1.34 ratio | 64.5 control = 100 | 86.3 control = 100 |
| GpH7-A5/GpH7-B3 variant Q295_11K/GpL16-k0 (antibody, human IgG1, kappa, heterodimerized anti-glypican-3 IgG1; alteration in one H chain only; also called He Ab) heavy 1: not shown heavy 2: not shown light: DIVMTQSPLSLPVTPGEPASISCQASESLVHSNRNTYLHWYLQKPGQSPQLLIYKVSNRFSGVPDRFSGSGSGTDFTLKISRVEAEDVGVYYCSQNTHVPPTFGQGTKVEIERTVAAPSVFIFPPSDEQLKSGTASVVCLLNNFYPREAKVQWKVDNALQSGNSQESVTEQDSKDSTYSLSSTLTLSKADYEKHKVYACEVTHQGLSSPVTKSFNRGEC | 1.26 ratio | 70.4 control = 100 | 88.9 control = 100 |
| GpH7-A5/GpH7-B3 variant P271_15Y/GpL16-k0 (antibody, human IgG1, kappa, heterodimerized anti-glypican-3 IgG1; alteration in one H chain only; also called He Ab) heavy 1: not shown heavy 2: not shown light: DIVMTQSPLSLPVTPGEPASISCQASESLVHSNRNTYLHWYLQKPGQSPQLLIYKVSNRFSGVPDRFSGSGSGTDFTLKISRVEAEDVGVYYCSQNTHVPPTFGQGTKVEIERTVAAPSVFIFPPSDEQLKSGTASVVCLLNNFYPREAKVQWKVDNALQSGNSQESVTEQDSKDSTYSLSSTLTLSKADYEKHKVYACEVTHQGLSSPVTKSFNRGEC | 1.35 ratio | 52.3 control = 100 | 70.7 control = 100 |
| GpH7-A5/GpH7-B3 variant Q295_01G/GpL16-k0 (antibody, human IgG1, kappa, heterodimerized anti-glypican-3 IgG1; alteration in one H chain only; also called He Ab) heavy 1: not shown heavy 2: not shown light: DIVMTQSPLSLPVTPGEPASISCQASESLVHSNRNTYLHWYLQKPGQSPQLLIYKVSNRFSGVPDRFSGSGSGTDFTLKISRVEAEDVGVYYCSQNTHVPPTFGQGTKVEIERTVAAPSVFIFPPSDEQLKSGTASVVCLLNNFYPREAKVQWKVDNALQSGNSQESVTEQDSKDSTYSLSSTLTLSKADYEKHKVYACEVTHQGLSSPVTKSFNRGEC | 1.32 ratio | 46 control = 100 | 60.9 control = 100 |
| GpH7-A5/GpH7-B3 variant S298_01G/GpL16-k0 (antibody, human IgG1, kappa, heterodimerized anti-glypican-3 IgG1; alteration in one H chain only; also called He Ab) heavy 1: not shown heavy 2: not shown light: DIVMTQSPLSLPVTPGEPASISCQASESLVHSNRNTYLHWYLQKPGQSPQLLIYKVSNRFSGVPDRFSGSGSGTDFTLKISRVEAEDVGVYYCSQNTHVPPTFGQGTKVEIERTVAAPSVFIFPPSDEQLKSGTASVVCLLNNFYPREAKVQWKVDNALQSGNSQESVTEQDSKDSTYSLSSTLTLSKADYEKHKVYACEVTHQGLSSPVTKSFNRGEC | 1.23 ratio | 80.1 control = 100 | 98.8 control = 100 |
| GpH7-A5/GpH7-B3 variant Q295_03V/GpL16-k0 (antibody, human IgG1, kappa, heterodimerized anti-glypican-3 IgG1; alteration in one H chain only; also called He Ab) heavy 1: not shown heavy 2: not shown light: DIVMTQSPLSLPVTPGEPASISCQASESLVHSNRNTYLHWYLQKPGQSPQLLIYKVSNRFSGVPDRFSGSGSGTDFTLKISRVEAEDVGVYYCSQNTHVPPTFGQGTKVEIERTVAAPSVFIFPPSDEQLKSGTASVVCLLNNFYPREAKVQWKVDNALQSGNSQESVTEQDSKDSTYSLSSTLTLSKADYEKHKVYACEVTHQGLSSPVTKSFNRGEC | 1.2 ratio | 75.7 control = 100 | 91.2 control = 100 |
